Substitutions are numbered along the chain they refer to. Numbers in names are those of the source.
B1: CD33/CD16A/IL-15 trifunctional fusion protein QP43394340 (FC with L234A/L235A mutation for eliminating function) (bispecific antibody)
chain 1: not shown
chain 2: not shown
light: DIVMTQSPDSLTVSLGERTTINCKSSQSVLDSSTNKNSLAWYQQKPGQPPKLLLSWASTRESGIPDRFSGSGSGTDFTLTIDSPQPEDSATYYCQQSAHFPITFGQGTRLEIKRTVAAPSVFIFPPSDEQLKSGTASVVCLLNNFYPREAKVQWKVDNALQSGNSQESVTEQDSKDSTYSLSSTLTLSKADYEKHKVYACEVTHQGLSSPVTKSFNRGEC
heavy: QVQLVQSGAEVKKPGESVKVSCKASGYTFTNYGMNWVKQAPGQGLEWMGWINTYTGEPTYADKFQGRVTMTTDTSTSTAYMEIRNLGGDDTAVYYCARWSWSDGYYVYFDYWGQGTSVTVSSASTKGPSVFPLAPSSKSTSGGTAALGCLVKDYFPEPVTVSWNSGALTSGVHTFPAVLQSSGLYSLSSVVTVPSSSLGTQTYICNVNHKPSNTKVDKKVEPKSCDKTHTCPPCPAPEAAGGPSVFLFPPKPKDTLMISRTPEVTCVVVDVSHEDPEVKFNWYVDGVEVHNAKTKPREEQYNSTYRVVSVLTVLHQDWLNGKEYKCKVSNKALPAPIEKTISKAKGQPREPQVYTLPPSREEMTKNQVSLSCAVKGFYPSDIAVEWESNGQPENNYKTTPPVLDSDGSFFLVSKLTVDKSRWQQGNVFSCSVMHEALHNRYTQKSLSLSPGK
B2: CD33/CD16A/IL-15 trifunctional fusion protein QP743745 (FC wild-type) (bispecific antibody)
chain 1: not shown
chain 2: not shown
light: B1 light
heavy: B1 heavy with A239L, A240L
B3: CD33/CD16A bispecific antibody QP4115777778 (FC wild-type) (bispecific antibody)
chain: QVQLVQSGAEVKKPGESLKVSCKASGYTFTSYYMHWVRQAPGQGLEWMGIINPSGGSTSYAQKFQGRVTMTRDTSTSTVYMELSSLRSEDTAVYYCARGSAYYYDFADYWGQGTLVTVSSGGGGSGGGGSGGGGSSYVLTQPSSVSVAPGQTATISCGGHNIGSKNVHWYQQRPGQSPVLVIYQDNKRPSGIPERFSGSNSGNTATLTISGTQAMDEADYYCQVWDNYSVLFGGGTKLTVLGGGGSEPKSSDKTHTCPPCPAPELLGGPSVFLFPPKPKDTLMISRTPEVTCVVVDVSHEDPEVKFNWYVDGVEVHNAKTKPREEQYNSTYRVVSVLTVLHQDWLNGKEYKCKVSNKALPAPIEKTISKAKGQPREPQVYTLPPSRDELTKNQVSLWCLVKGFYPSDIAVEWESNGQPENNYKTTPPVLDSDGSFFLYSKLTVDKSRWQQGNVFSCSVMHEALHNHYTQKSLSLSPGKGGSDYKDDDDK
heavy: QVQLVQSGAEVKKPGESVKVSCKASGYTFTNYGMNWVKQAPGQGLEWMGWINTYTGEPTYADKFQGRVTMTTDTSTSTAYMEIRNLGGDDTAVYYCARWSWSDGYYVYFDYWGQGTSVTVSSASTKGPSVFPLAPSSKSTSGGTAALGCLVKDYFPEPVTVSWNSGALTSGVHTFPAVLQSSGLYSLSSVVTVPSSSLGTQTYICNVNHKPSNTKVDKKVEPKSCDKTHTCPPCPAPELLGGPSVFLFPPKPKDTLMISRTPEVTCVVVDVSHEDPEVKFNWYVDGVEVHNAKTKPREEQYNSTYRVVSVLTVLHQDWLNGKEYKCKVSNKALPAPIEKTISKAKGQPREPQVYTLPPSREEMTKNQVSLSCAVKGFYPSDIAVEWESNGQPENNYKTTPPVLDSDGSFFLVSKLTVDKSRWQQGNVFSCSVMHEALHNRYTQKSLSLSPGKGGSHHHHHH
light: B1 light
B4: QP42884285 (antibody)
chain 1: DIVMTQSPDSLTVSLGERTTINCKSSQSVLDSSTNKNSLAWYQQKPGQPPKLLLSWASTRESGIPDRFSGSGSGTDFTLTIDSPQPEDSATYYCQQSAHFPITFGQGTRLEIKTVAAPSVFIFPPSYVLTQPSSVSVAPGQTATISCGGHNIGSKNVHWYQQRPGQSPVLVIYQDNKRPSGIPERFSGSNSGNTATLTISGTQAMDEADYYCQVWDNYSVLFGGGTKLTVLRTVAAPSVFIFPPSDEQLKSGTASVVCLLNNFYPREAKVQWKVDNALQSGNSQESVTEQDSKDSTYSLSSTLTLSKADYEKHKVYACEVTHQGLSSPVTKSFNRGEC
chain 2: QVQLVQSGAEVKKPGESVKVSCKASGYTFTNYGMNWVKQAPGQGLEWMGWINTYTGEPTYADKFQGRVTMTTDTSTSTAYMEIRNLGGDDTAVYYCARWSWSDGYYVYFDYWGQGTSVTVSSASTKGPQVQLVQSGAEVKKPGESLKVSCKASGYTFTSYYMHWVRQAPGQGLEWMGIINPSGGSTSYAQKFQGRVTMTRDTSTSTVYMELSSLRSEDTAVYYCARGSAYYYDFADYWGQGTLVTVSSASTKGPSVFPLAPSSKSTSGGTAALGCLVKDYFPEPVTVSWNSGALTSGVHTFPAVLQSSGLYSLSSVVTVPSSSLGTQTYICNVNHKPSNTKVDKKVEPKSCDKTHTCPPCPAPEAAGGPSVFLFPPKPKDTLMISRTPEVTCVVVDVSHEDPEVKFNWYVDGVEVHNAKTKPREEQYNSTYRVVSVLTVLHQDWLNGKEYKCKVSNKALPAPIEKTISKAKGQPREPQVYTLPPSREEMTKNQVSLSCAVKGFYPSDIAVEWESNGQPENNYKTTPPVLDSDGSFFLVSKLTVDKSRWQQGNVFSCSVMHEALHNRYTQKSLSLSPGKGGSHHHHHH
chain 3: not shown
chain 4: not shown
B5: QP42664412 (antibody)
chain 1: B1 light
chain 2: B3 heavy with L239A, L240A
chain 3: MEFGLSWLFLVAILKGVQCSYVLTQPSSVSVAPGQTATISCGGHNIGSKNVHWYQQRPGQSPVLVIYQDNKRPSGIPERFSGSNSGNTATLTISGTQAMDEADYYCQVWDNYSVLFGGGTKLTVLGGGGSGGGGSGGGGSITCPPPMSVEHADIWVKSYSLYSRERYICNSGFKRKAGTCSLTECVLNKATNVAHWTTPSLKCIR
chain 4: not shown
B6: QP42664400 (antibody)
chain 1: B1 light
chain 2: B3 heavy with L239A, L240A
chain 3: not shown
chain 4: not shown
B7: QP42664415 (antibody)
chain 1: B1 light
chain 2: B3 heavy with L239A, L240A
chain 3: MEFGLSWLFLVAILKGVQCQVQLVQSGAEVKKPGESLKVSCKASGYTFTSYYMHWVRQAPGQGLEWMGIINPSGGSTSYAQKFQGRVTMTRDTSTSTVYMELSSLRSEDTAVYYCARGSAYYYDFADYWGQGTLVTVSSGGGGSGGGGSGGGGSITCPPPMSVEHADIWVKSYSLYSRERYICNSGFKRKAGTCSLTECVLNKATNVAHWTTPSLKCIR
chain 4: not shown
B8: QP42664421 (antibody)
chain 1: B1 light
chain 2: B3 heavy with L239A, L240A
chain 3: MEFGLSWLFLVAILKGVQCITCPPPMSVEHADIWVKSYSLYSRERYICNSGFKRKAGTCSLTECVLNKATNVAHWTTPSLKCIRGGGSGGGGGGGGSSYVLTQPSSVSVAPGQTATISCGGHNIGSKNVHWYQQRPGQSPVLVIYQDNKRPSGIPERFSGSNSGNTATLTISGTQAMDEADYYCQVWDNYSVLFGGGTKLTVL
chain 4: not shown
B9: QP42664406 (antibody)
chain 1: B1 light
chain 2: B3 heavy with L239A, L240A
chain 3: not shown
chain 4: not shown
B10: QP42664269 (antibody)
chain 1: B1 light
chain 2: B3 heavy with L239A, L240A
chain 3: not shown
chain 4: not shown
B11: QP42824285 (antibody)
chain 1: MEFGLSWLFLVAILKGVQCQVQLVQSGAEVKKPGESVKVSCKASGYTFTNYGMNWVKQAPGQGLEWMGWINTYTGEPTYADKFQGRVTMTTDTSTSTAYMEIRNLGGDDTAVYYCARWSWSDGYYVYFDYWGQGTSVTVSSGGGSGGGGSYVLTQPSSVSVAPGQTATISCGGHNIGSKNVHWYQQRPGQSPVLVIYQDNKRPSGIPERFSGSNSGNTATLTISGTQAMDEADYYCQVWDNYSVLFGGGTKLTVLGGGGSGGGGSGGGGSRTVAAPSVFIFPPSDEQLKSGTASVVCLLNNFYPREAKVQWKVDNALQSGNSQESVTEQDSKDSTYSLSSTLTLSKADYEKHKVYACEVTHQGLSSPVTKSFNRGEC
chain 2: MEFGLSWLFLVAILKGVQCQVQLVQSGAEVKKPGESLKVSCKASGYTFTSYYMHWVRQAPGQGLEWMGIINPSGGSTSYAQKFQGRVTMTRDTSTSTVYMELSSLRSEDTAVYYCARGSAYYYDFADYWGQGTLVTVSSGGGSGGGGDIVMTQSPDSLTVSLGERTTINCKSSQSVLDSSTNKNSLAWYQQKPGQPPKLLLSWASTRESGIPDRFSGSGSGTDFTLTIDSPQPEDSATYYCQQSAHFPITFGQGTRLEIKGGGGSGGGGSGGGGSASTKGPSVFPLAPSSKSTSGGTAALGCLVKDYFPEPVTVSWNSGALTSGVHTFPAVLQSSGLYSLSSVVTVPSSSLGTQTYICNVNHKPSNTKVDKKVEPKSCDKTHTCPPCPAPEAAGGPSVFLFPPKPKDTLMISRTPEVTCVVVDVSHEDPEVKFNWYVDGVEVHNAKTKPREEQYNSTYRVVSVLTVLHQDWLNGKEYKCKVSNKALPAPIEKTISKAKGQPREPQVYTLPPSREEMTKNQVSLSCAVKGFYPSDIAVEWESNGQPENNYKTTPPVLDSDGSFFLVSKLTVDKSRWQQGNVFSCSVMHEALHNRYTQKSLSLSPGKGGSHHHHHH
chain 3: not shown
chain 4: not shown

These binders were tested against T1, CD33 naturally expressed on HL60 cells (human, UniProt P20138 18-364) (assay: FACS).
T1 sequence (P20138 18-364): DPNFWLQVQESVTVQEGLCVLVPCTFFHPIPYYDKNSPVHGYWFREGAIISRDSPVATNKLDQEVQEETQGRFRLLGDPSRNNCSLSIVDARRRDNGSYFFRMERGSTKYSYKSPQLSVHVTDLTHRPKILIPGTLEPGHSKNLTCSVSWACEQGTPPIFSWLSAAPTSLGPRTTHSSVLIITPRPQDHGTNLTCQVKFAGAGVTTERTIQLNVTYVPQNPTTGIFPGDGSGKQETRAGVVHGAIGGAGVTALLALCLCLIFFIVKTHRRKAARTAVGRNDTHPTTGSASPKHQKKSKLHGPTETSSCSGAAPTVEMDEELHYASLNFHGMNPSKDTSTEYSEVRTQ

B1 was tested. Which EC50 did it give?
The EC50 was 13.4 nM.

Which EC50 does the source give for B2 here?
The EC50 was 8.08 nM.

B3 was tested. Which EC50 did it give?
The EC50 was 9.63 nM.

Target: T1, CD33 naturally expressed on HL60 cells
Assay: FACS
Remark: another data set of the same source

Which EC50 does the source give for B4 here?
The EC50 was 1.97 nM.

Which EC50 does the source give for B5 here?
The EC50 was 12 nM.

For B6, which EC50 is on record?
The EC50 was 8.39 nM.

For B7, which EC50 is on record?
Its EC50 is 14.2 nM.

For B8, which EC50 is on record?
The EC50 was 11.6 nM.

B9 was tested. Which EC50 did it give?
Its EC50 is 11.3 nM.

How did the EC50 turn out when B10 was run?
Its EC50 is 2.27 nM.

Which EC50 does the source give for B11 here?
Its EC50 is 2.31 nM.
